Test results from patent US20240254203A1.

Target: SARS COV-1 spike protein (SARS COV-1) (UniProt P59594)
Experiment: cell-based or functional assay

Sequence of soluble 80R scFv (VH): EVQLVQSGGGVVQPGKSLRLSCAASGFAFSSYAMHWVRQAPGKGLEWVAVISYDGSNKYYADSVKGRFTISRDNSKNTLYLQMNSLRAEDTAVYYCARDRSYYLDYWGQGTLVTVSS
Sequence of soluble 80R scFv (VL): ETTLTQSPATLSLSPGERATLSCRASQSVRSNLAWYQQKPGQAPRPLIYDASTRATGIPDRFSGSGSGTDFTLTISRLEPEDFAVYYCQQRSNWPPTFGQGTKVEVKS

## soluble 80R scFv
  IC50, neutralization of SARS COV-1 by the soluble scFv: 7.43 nM
